This note sets out measurements from publication PMC9012491, “Engineering the Single Domain Antibodies Targeting Receptor Binding Motifs Within the Domain III of West Nile Virus Envelope Glycoprotein” (Frontiers in Microbiology, 2022).

Assay [1] addresses T1, synthetic analog of the receptor binding motif DIII-2^V371–R388 (West Nile virus; residues agree with …, biotinylated C-terminal lysine).
T1 construct: numbers count on: the E glycoprotein; rDIII is of strain goshawk (GenBank DQ116961.1); source: synthetic peptide (Caslo)
T1 chain: VLIELEPPFGDSYIVVGR
The assay can be described thus: far-Western, overlay or dot blot; dot blot: purified sdAbs (1 μl) spotted on nitrocellulose, blocked with 5% BSA; biotinylated peptide 1 μg/ml in phosphate buffer pH 7.0, 1 h; streptavidin-HRP. Conditions: both partners purified.

For assay [2], the target named is T2, synthetic analog of the receptor binding motif DIII-1^G299–K307 (West Nile virus; residues agree with …, biotinylated C-terminal lysine).
T2 construct: numbers count on: the E glycoprotein; rDIII is of strain goshawk (GenBank DQ116961.1); also called DIII-1^L299–K307 (so printed in the discussion); source: synthetic peptide (Caslo)
T2 chain: GTTYGVCSK
The assay is described as above. Conditions: both partners purified.

B1: sdAbA10 (VHH)
VHH: QVQVLASGGGLVQPGGSLRLSCAASGFTFSSNAMSWVRQAPGKGLEWVSTINSGGSRTTYTDSVKGRFTISRDNAKNTLYLQMNSLKPDDTAVYYCAKARVDLNLHGWGTSYEYDYWGQGTLVTVS
notes: also called sdAbA9
For the molecule B1, the binding result in assay [1] is given as “binds”.

B2: sdAbA6 (VHH)
VHH: EVQVVASGGGLVQPGGSLSLSCAASGFTFSGYDMTWVRQAPGKGLEWVSSINSGGGNTNYADSVKGRFTISRDNAKNTLYLQMNSLKPEDTALYYCARRNDYGSLLAALDAWGQGTLVTVS
B2: in assay [2], the binding result is recorded as “binds”.

B3: sdAbA1 (VHH)
VHH: QVQLLASGPGLVKPSQTLSLTCTVSGGAITSGYYGWSWIRQPPGKELEWMGVIASSGSTYYSPSLKSRTSISRDTSKSQFTLQLSSVTPEDTAVYYCARDAIQGPNFLYDYWGQGTLVTVS
Regarding B3, in assay [2], the binding result is given as “binds”.
